We go through seven molecules from patent US20190367631A1 (Regeneron, published 2019).

T1: human MSR1 extracellular domain expressed with a N-terminal nonahistidine tag (His9-hMSR1); R&D Systems, Cat … (human, UniProt P21757 77-451)
T1 construct: extracellular domain; Bought reagent; also called His-hMSR1; 9xHis-hMSR1
T1 sequence: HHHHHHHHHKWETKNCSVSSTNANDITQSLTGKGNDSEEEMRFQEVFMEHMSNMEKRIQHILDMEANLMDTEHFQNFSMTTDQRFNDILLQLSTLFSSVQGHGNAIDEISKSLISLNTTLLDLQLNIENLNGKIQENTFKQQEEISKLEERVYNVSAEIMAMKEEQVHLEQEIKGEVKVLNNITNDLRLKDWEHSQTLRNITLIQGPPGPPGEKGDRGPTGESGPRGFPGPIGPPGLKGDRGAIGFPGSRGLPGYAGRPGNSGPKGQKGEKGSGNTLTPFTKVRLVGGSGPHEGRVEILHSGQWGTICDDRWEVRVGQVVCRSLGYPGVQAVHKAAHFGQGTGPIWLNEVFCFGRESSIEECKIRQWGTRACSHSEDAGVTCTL

B1: H1H27734P-N297Q (antibody, human IgG1, V domains shown)
VH: EVQLVESRGGLVQPGGSLRLSCAASGFTFSSYAMSWVRQAPGKGLEWVSAISGSGGSTFYADSVKGRFTISRDNSKNTVYLQMNSLRAEDTAVYYCAKALVLRFLEWLGDYWGQGTLVTVSS
VL: DIQMTQSPSTLSASVGDRVTITCRASQSISSWLAWFQQKPGKAPKLLIYKASSLESGVPSRFSGSGSGTEFTLTISSLQPDDFATYYCQQYKSYWTFGQGTKVEIKR
notes: human IgG1 Fc with N297Q (EU)
B2: H1H27734P-N297Q-LP1 (antibody, human IgG1, V domains shown)
VH: EVQLVESRGGLVQPGGSLRLSCAASGFTFSSYAMSWVRQAPGKGLEWVSAISGSGGSTFYADSVKGRFTISRDNSKNTVYLQMNSLRAEDTAVYYCAKALVLRFLEWLGDYWGQGTLVTVSS
VL: DIQMTQSPSTLSASVGDRVTITCRASQSISSWLAWFQQKPGKAPKLLIYKASSLESGVPSRFSGSGSGTEFTLTISSLQPDDFATYYCQQYKSYWTFGQGTKVEIKR
modifications: LXR agonist linker-payload LP1 clicked to azido-PEG3-amine on Q295 and Q297 (EU) of the heavy chain constant region
notes: antibody-drug conjugate; human IgG1 Fc with N297Q (EU); also called H1H27734P-LP1
B3: H1H27739P-N297Q (antibody, human IgG1, V domains shown)
VH: EVQLVESGGGLVQPGGSLRLSCTASGFTFSSYAMSWVRQAPGKGLEWVSAISGTGSSTYFTDSVKGRFAISRDNSKNTLYLQMNSLRAEDTAVYYCAKDGEWLSTVTLFDYWGQGTLVTVSS
VL: EIVMTQSPATLSVSPGERATLSCRASQSVSSNLAWYQQKPGQAPRLLIYGASTRATGIPARFSGSGSGTDFTLTISSLQSEDFALYYCQQYFIWPPHPTFGPGTKVDIKR
notes: human IgG1 Fc with N297Q (EU)
B4: H1H27739P-N297Q-LP1 (antibody, human IgG1, V domains shown)
VH: EVQLVESGGGLVQPGGSLRLSCTASGFTFSSYAMSWVRQAPGKGLEWVSAISGTGSSTYFTDSVKGRFAISRDNSKNTLYLQMNSLRAEDTAVYYCAKDGEWLSTVTLFDYWGQGTLVTVSS
VL: EIVMTQSPATLSVSPGERATLSCRASQSVSSNLAWYQQKPGQAPRLLIYGASTRATGIPARFSGSGSGTDFTLTISSLQSEDFALYYCQQYFIWPPHPTFGPGTKVDIKR
modifications: LXR agonist linker-payload LP1 clicked to azido-PEG3-amine on Q295 and Q297 (EU) of the heavy chain constant region
notes: antibody-drug conjugate; human IgG1 Fc with N297Q (EU); also called H1H27739P-LP1
B5: H1H27731P-N297Q (antibody, V domains shown)
VH: QLQLQESGPGLVKPSETLSLTCTVSGGSISRISYYWGWIRQPPGKGLEWIGSIYDSGSTYYNPSLKSRVTISIDTSKNQFSLKLSSVTAADTAVYYCVRYSSSSAFAFDYWGQGTLVTVSS
VL: DIQMTQSPSSVSASVGDRVTITCRASQGISSWLAWYQQKPGKAPKLLIYAASSLQSGVPSRFSGSGSGTDFTLTISSLQPEDFATYYCQQANSFPFTFGPGTKVDIKR
notes: human IgG1 Fc with N297Q (EU)
B6: H1H27729P-N297Q (antibody, human IgG1, V domains shown)
VH: QVQLVESGGGLVKPGGSLRLSCAASGFIFSDYYMSWIRQAPGKGLEWVSYISSSGTTIYGDSVKGRFTMSRDNAKNSLYLQMNSLRAEDTAVYYCARNYALFDYWGQGTLVTVSS
VL: DIQMTQSPSSLSASVGDRVTITCQASQDISKYLNWYQQKPGKAPKLLIYYTSNLETGVPSRFSGSGSGTDFTFTISSLQPEDIATYYCHQSDYLPFTFGPGTKVDIKR
notes: human IgG1 Fc with N297Q (EU)
B7: H1H27729P-N297Q-LP1 (antibody, human IgG1, V domains shown)
VH: QVQLVESGGGLVKPGGSLRLSCAASGFIFSDYYMSWIRQAPGKGLEWVSYISSSGTTIYGDSVKGRFTMSRDNAKNSLYLQMNSLRAEDTAVYYCARNYALFDYWGQGTLVTVSS
VL: DIQMTQSPSSLSASVGDRVTITCQASQDISKYLNWYQQKPGKAPKLLIYYTSNLETGVPSRFSGSGSGTDFTFTISSLQPEDIATYYCHQSDYLPFTFGPGTKVDIKR
modifications: LXR agonist linker-payload LP1 clicked to azido-PEG3-amine on Q295 and Q297 (EU) of the heavy chain constant region
notes: antibody-drug conjugate; human IgG1 Fc with N297Q (EU); also called H1H27729P-LP1

The target in this experiment is T1, human MSR1 extracellular domain …. As to the kind of experiment: SPR Biacore T200, 25 C, antibody captured by anti-human Fc, His9-hMSR1 injected.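 Also: running buffer HBS-ET pH 7.4, rates from sensorgrams fitted to a 1:1 model including mass transport limitation, KD and half-life derived from the kinetic constants.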
Description: All binding studies were performed in 10 mM HEPES, 300 mM NaCl, 3 mM EDTA, and 0.05% v/v Surfactant Tween-20, pH 7.4 (HBS-ET) running buffer at 25° C.
The association rate (kₐ) and dissociation rate (kd) were determined by fitting the real-time binding sensorgrams to a 1:1 binding model with mass transport limitation using Scrubber 2.0c curve-fitting software. Binding dissociation equilibrium constant (KD) and dissociative half-life (t½) were calculated from the kinetic rates as:
Consider B1, for which the equilibrium dissociation constant (Kd) came to 7.72 nM, the koff worked out at 0.000596 s⁻¹, the association rate constant (kon) was 77200 M⁻¹ s⁻¹ and the t½ was found to be 19.4 min.
The corresponding values for B2 are 6.49 nM, 0.000449 s⁻¹, 69300 M⁻¹ s⁻¹ and 25.7 min.
The corresponding values for B3 are 4.68 nM, 0.000555 s⁻¹, 119000 M⁻¹ s⁻¹ and 20.8 min.
In the same order, the values of B4 are 8.14 nM, 0.000722 s⁻¹, 88800 M⁻¹ s⁻¹ and 16 min.
Molecule B5 had a Kd of at most 0.0855 nM, a koff of at most 1e-05 s⁻¹, a kon of 117000 M⁻¹ s⁻¹ and a t½ of 1160 min.
In the same order, the values of B6 are 8.67 nM, 0.000906 s⁻¹, 105000 M⁻¹ s⁻¹ and 12.8 min.
The corresponding values for B7 are 13.1 nM, 0.000718 s⁻¹, 54700 M⁻¹ s⁻¹ and 16.1 min.
